The values that follow come from publication PMC4852379.

Test [1] deals with antibody 5J8, FA variant (Q295F/Y296A), EAS-stabilized (human). The experiment in a line: BLI.
Test [2] concerns the target antibody 5J8, wild type (human IgG1 monoclonal antibody) (human). The test is described as follows: BLI.

“Fc gamma receptor IIIa (FcγRIIIa), recombinant (from UniProt P08637 17-208)”: the Kd in test [1] amounted to 1000 nM.

The substance “Fc gamma receptor IIa (FcγRIIa), recombinant (from UniProt P12318 34-217)” gave a Kd in test [2] of 270 nM.
